Positions count from the first letter of the chain named.
Assays:
ABCB1-YFP P1.008G = molecular target: T1, ABCB1-YFP P1.008G (Arabidopsis, UniProt Q9ZR72 1-1286, P1.008G); experiment: FRET or BRET
T1 sequence: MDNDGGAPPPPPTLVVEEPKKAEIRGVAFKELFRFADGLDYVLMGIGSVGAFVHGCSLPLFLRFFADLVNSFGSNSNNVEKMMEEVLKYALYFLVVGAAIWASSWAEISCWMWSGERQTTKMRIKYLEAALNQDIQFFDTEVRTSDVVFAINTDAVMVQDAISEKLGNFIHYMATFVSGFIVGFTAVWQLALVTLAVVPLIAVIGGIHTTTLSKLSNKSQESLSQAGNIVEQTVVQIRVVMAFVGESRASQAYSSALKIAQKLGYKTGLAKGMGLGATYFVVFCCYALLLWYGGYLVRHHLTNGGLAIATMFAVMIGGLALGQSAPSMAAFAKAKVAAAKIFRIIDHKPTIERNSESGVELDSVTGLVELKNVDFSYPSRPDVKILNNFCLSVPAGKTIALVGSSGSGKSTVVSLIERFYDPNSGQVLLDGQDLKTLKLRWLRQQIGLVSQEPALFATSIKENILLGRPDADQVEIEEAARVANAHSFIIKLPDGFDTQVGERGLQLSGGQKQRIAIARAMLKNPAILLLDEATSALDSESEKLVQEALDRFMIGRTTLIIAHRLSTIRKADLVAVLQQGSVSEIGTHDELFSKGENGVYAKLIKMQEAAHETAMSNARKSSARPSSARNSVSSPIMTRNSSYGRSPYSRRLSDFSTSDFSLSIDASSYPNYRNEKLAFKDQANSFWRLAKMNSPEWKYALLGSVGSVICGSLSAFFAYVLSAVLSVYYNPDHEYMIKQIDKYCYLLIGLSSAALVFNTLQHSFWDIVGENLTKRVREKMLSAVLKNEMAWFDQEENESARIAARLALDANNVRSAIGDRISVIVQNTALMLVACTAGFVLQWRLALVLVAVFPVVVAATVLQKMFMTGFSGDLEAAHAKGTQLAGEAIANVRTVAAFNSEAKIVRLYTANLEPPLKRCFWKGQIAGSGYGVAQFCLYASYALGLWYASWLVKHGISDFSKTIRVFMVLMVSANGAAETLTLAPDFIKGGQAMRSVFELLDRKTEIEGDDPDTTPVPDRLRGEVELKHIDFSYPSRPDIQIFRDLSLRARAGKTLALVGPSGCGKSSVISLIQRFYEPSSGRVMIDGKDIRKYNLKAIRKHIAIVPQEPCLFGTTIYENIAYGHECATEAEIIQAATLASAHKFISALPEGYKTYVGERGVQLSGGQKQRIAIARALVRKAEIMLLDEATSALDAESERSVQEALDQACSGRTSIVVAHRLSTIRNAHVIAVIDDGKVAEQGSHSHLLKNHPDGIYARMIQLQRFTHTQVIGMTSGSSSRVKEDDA

ABCB1-YFP E1.007A = molecular target: T2, ABCB1-YFP E1.007A (Arabidopsis, UniProt Q9ZR72 1-1286, E1.007A); experiment: FRET or BRET
T2 sequence: T1 sequence with E1007A, G1008P

B1: TWD1-Rluc (natural protein)
chain: MDESLEHQTQTHDQESEIVTEGSAVVHSEPSQEGNVPPKVDSEAEVLDEKVSKQIIKEGHGSKPSKYSTCFLHYRAWTKNSQHKFEDTWHEQQPIELVLGKEKKELAGLAIGVASMKSGERALVHVGWELAYGKEGNFSFPNVPPMADLLYEVEVIGFDETKEGKARSDMTVEERIGAADRRKMDGNSLFKEEKLEEAMQQYEMAIAYMGDDFMFQLYGKYQDMALAVKNPCHLNIAACLIKLKRYDEAIGHCNIVLTEEEKNPKALFRRGKAKAELGQMDSARDDFRKAQKYAPDDKAIRRELRALAEQEKALYQKQKEMYKGIFKGKDEGGAKSKSLFWLIVLWQWFVSLFSRIFRRHRVKAD
Q: Which “reduction of the BRET ratio against Wt ABCB1-YFP” value (ABCB1-YFP P1.008G) does the source give for B1 here?
A: The value was ~17%.

Q: What about the “reduction of the BRET ratio against Wt ABCB1-YFP” value (ABCB1-YFP E1.007A) of the same binder?
A: The value was ~39%.

— paper doi:10.1101/2020.05.08.084087 (bioRxiv, 2020)
